The values that follow are results of earlier work, collected in PMC5877629.

This data set addresses infliximab. The data set is described as follows: sedimentation equilibrium analytical ultracentrifugation.

As a reminder, the Kd is the free concentration of one partner at which half of the binding sites on the other are occupied at equilibrium, for simple one-to-one binding. As for infliximab, the Kd was 21 µM.
